# Assay results as given in paper PMC12203963.
# B1: ALFA-tagged IRT1 (iron-regulated transporter 1), wildtype [Arabidopsis thaliana] / CIPK23 fused to the mCitC fragment [not stated] (parent)
# chain 1: MASRTTPSRSTPSRSTPSGSSSGGRTRVGKYELGRTLGEGTFAKVKFARNVENGDNVAIKVIDKEKVLKNKMIAQIKREISTMKLIKHPNVIRMFEVMASKTKIYFVLEFVTGGELFDKISSNGRLKEDEARKYFQQLINAVDYCHSRGVYHRDLKPENLLLDANGALKVSDFGLSALPQQVREDGLLHTTCGTPNYVAPEVINNKGYDGAKADLWSCGVILFVLMAGYLPFEDSNLTSLYKKIFKAEFTCPPWFSASAKKLIKRILDPNPATRITFAEVIENEWFKKGYKAPKFENADVSLDDVDAIFDDSGESKNLVVERREEGLKTPVTMNAFELISTSQGLNLGSLFEKQMGLVKRKTRFTSKSSANEIVTKIEAAAAPMGFDVKTNNYKMKLTGEKSGRKGQLAVATEVFQVAPSLYMVEMRKSGGDTLEFHKFYKNLTTGLKDIVWKTIDEEKEEGTDGGGTNGAMANRTIAKQST
# chain 2: ISPATSTAPEECGSESANPCVNKAKALPLKVIAIFVILIASMIGVGAPLFSRNVSFLQPDGNIFTIIKCFASGIILGTGFMHVLPDSFEMLSSICLEENPWHKFPFSGFLAMLSGLITLAIDSMATSLYTSKNAVGIMPHGHGHGHGPANDVTLPIKEDDSSNAQLLRYRVIAMVLELGIIVHSVVIGLSLGATSDTCTIKGLIAALCFHQMFEGMGLGGCILQAEYTNMKKFVMAFFFAVTTPFGIALGIALSTVYQDNSPKALITVGLLNACSAGLLIYMALVDLLAAEFMGPKLQGSIKMQFKCLIAALLGCGGMSIIAKWA
# Variants of: B1
# Assay: trimolecular fluorescence complementation (TriFC)
# Settings: with CIPK23 fused to the mCitC fragment; parent: 74; read off a plot
row,response,Variant
1,23,chain 2 ISPATSTAPEECGSESANPCVNKAKALPLKVIAIFVILIASMIGVGAPLFSRNVSFLQPDGNIFTIIKCFASGIILGTGFMHVLPDSFEMLSSICLEENPWHKFPFSGFLAMLSGLITLAIDSMATSLYTSKNAVGIMPAGAGHGHGPANQVTLPIKEDDSSNAQLLRYRVIAMVLELGIIVHSVVIGLSLGATSDTCTIKGLIAALCFHQMFEGMGLGGCILQAEYTNMKKFVMAFFFAVTTPFGIALGIALSTVYQDNSPKALITVGLLNACSAGLLIYMALVDLLAAEFMGPKLQGSIKMQFKCLIAALLGCGGMSIIAKWA [chain 2 H140A H142A D151Q]
2,67,chain 2 ISPATSTAPEECGSESANPCVNKAKALPLKVIAIFVILIASMIGVGAPLFSRNVSFLQPDGNIFTIIKCFASGIILGTGFMHVLPDSFEMLSSICLEENPWHKFPFSGFLAMLSGLITLAIDSMATSLYTSKNAVGIMPHGHGHGHGPANQVTLPIKEDDSSNAQLLRYRVIAMVLELGIIVHSVVIGLSLGATSDTCTIKGLIAALCFHQMFEGMGLGGCILQAEYTNMKKFVMAFFFAVTTPFGIALGIALSTVYQDNSPKALITVGLLNACSAGLLIYMALVDLLAAEFMGPKLQGSIKMQFKCLIAALLGCGGMSIIAKWA [chain 2 D151Q]
3,46,chain 2 ISPATSTAPEECGSESANPCVNKAKALPLKVIAIFVILIASMIGVGAPLFSRNVSFLQPDGNIFTIIKCFASGIILGTGFMHVLPDSFEMLSSICLEENPWHKFPFSGFLAMLSGLITLAIDSMATSLYTSKNAVGIMPAGAGHGHGPANDVTLPIKEDDSSNAQLLRYRVIAMVLELGIIVHSVVIGLSLGATSDTCTIKGLIAALCFHQMFEGMGLGGCILQAEYTNMKKFVMAFFFAVTTPFGIALGIALSTVYQDNSPKALITVGLLNACSAGLLIYMALVDLLAAEFMGPKLQGSIKMQFKCLIAALLGCGGMSIIAKWA [chain 2 H140A H142A]
